The target of assay [1] is E3gX, X = Arg.
The target in assay [2] is E3gX, X = Asn.
The target in assay [3] is E3gX, X = Asp.
The target in assay [4] is E3gX, X = Cys.
Assay [5] addresses E3gX, X = Gln.
The target in assay [6] is E3gX, X = Glu.
The target of assay [7] is E3gX, X = His.
The target in assay [8] is E3gX, X = Lys.
Assay [9] has as its target E3gX, X = Phe.
Assay [10] has as its target E3gX, X = Ser.
The target of assay [11] is E3gX, X = Trp.
Assay [12] has as its target E3gX, X = Tyr.

The values that follow come from patent US20110263816A1.

No end group written: not given here. Some results are limits rather than exact numbers.

B1: K3a,eRh2 (peptide)
peptide: KISALKQKESALEQKISALEK
modifications: also: Rh2(OAc)2 dirhodium centre bound through two Glu side chains, places not given here
B1: the % conv. at 24 h (covalent modification with diazo 1, MALDI-TOF MS) in assay [1] is 73 % conv; in assay [2], 70 % conv; in assay [3] it was 53 % conv; in assay [4], 78 % conv; in assay [5] it was above 95 % conv; in assay [6], 76 % conv. In addition, the % conv. at 24 h (covalent modification with diazo 1, MALDI-TOF MS) in [7] is 17 % conv; in [8] it was 8 % conv; in [9], above 95 % conv; in assay [10], 28 % conv; in assay [11] it was above 95 % conv; in assay [12], above 95 % conv.
